In US9885713B2, “Diagnosis and treatment of mycobacteria infections” (priority 2013, dated 2018):
“Also recorded” adds a separate entry of the source.

B1: Gp6: recombinant His-tagged minor tail protein Gp6 of mycobacteriophage L5 (SEQ ID NO: 1) (protein)
chain: MHHHHHHSSGLVPRGSGMKETAAAKFERQHMDSPDLGTDDDDKAMADIGSEFMADLGNPLDLEMLCLVTGRDFRWTIDYPWGPGELFLELETGGEHNALHQVYVTGATGGTYTLNVNGTNTPAIDYNDVSENPQGLAGDIQDALDAAVGAGNAVVHPVSLFPAWTLNFNLNASKPLTEQLVNTINKAANDFFDTFDQLLGVDVEMTVTDTLNFKLKVTSRRSFDEVGVVTFAVDVTSQAVINFFNSVAELTGAVNTVNVDFYWNRTYDIEFTGSLGLQPIPATTADITNLAGTSKAVSVTVVEPGKKRLTIWPFTVNGETATIKVESEEADKIPNRCRWQLVHMPTGEAAGGDAKQLGRVYRQPR
modifications: His6 tag
B2: Gp10: recombinant His-tagged lysin Gp10 of mycobacteriophage L5 (SEQ ID NO: 3) (protein)
chain: MHHHHHHSSGLVPRGSGMKETAAAKFERQHMDSPDLGTDDDDKAMADIGSEFMTFTVTRERAQWVHDMARARDGLPYAYGGAFTNNPRVSTDCSGLVLQTGAWYGGRTDWVGNRYGSTESFRLDHKIVYDLGFKRMPRGGPAALPIKPVMLVGLQHGGGGVYSHTACTLMTMDHPGGPVKMSDRGVDWESHGNRNGVGVELYEGARAWNDPLFHDFWYLDAVLEDEGDDDELADPVLGKMIREIHACLFNQTASTSDLATPGEGAIWQLHQKIHSIDGMLHPIHAERRARAGDLGELHRIVLAAKGLGVKRDEVTKRVYQSILADIERDNPEVLQRYIAERGGL
modifications: His6 tag

Key:
E. coli = test: Specificity control on protein covered gold surfaces (non-host bacteria); type: binding, Escherichia coli; conditions: E. coli K12; protein covered gold surface
Text: (§1) The concentrations of the two RBPs of Gp6, Gp-10 and Gp31 were optimized for immobilization. […] The specificity of recognition by the RBPs was confirmed by exposing similar surfaces to E. coli EC12 and Campylobacter jejuni 11168H strains of non-host bacteria.
(§2) Proteins were immobilized onto cysteamine covered gold surfaces that were activated with glutaraldehyde according to the previously described protocol where RBP samples were used instead of whole phage particles. Briefly, the gold substrates were fabricated using piranha cleaned silicon substrates by sputtering a 25 nm thick gold layer. The gold substrates were sonicated in acetone, isopropanol, ethanol and MilliQ (Millipore) water for 5 min each prior to their use (Branson Ultrasonics 1510, 40 kHz frequency). The gold substrates were incubated overnight at 40° C. in a 50 mM solution of cysteamine hydrochloride (Sigma-Aldrich). The cysteamine self assembled monolayer (SAM) substrates were modified by 2% glutaraldehyde (Sigma-Aldrich) for 1 hr at room temperature and washed twice in PBS. […] For fluorescence microscopy, the bacterial cells were stained with 50 μM resazurin (Sigma-Aldrich) for 20 min before exposure to the substrates covered with the immobilized proteins.
(§3) Bacterial cell binding to the gold surface covered with the immobilized protein was assessed as described previously. […]

[1] = tested on: Campylobacter jejuni 11168H; test: as above; type: binding; conditions: C. jejuni; protein covered gold surface
Text: as §1, §2, §3

S. Typhimurium = test: as above; type: binding, Salmonella enterica subsp. enterica sv. Typhimurium; conditions: protein covered gold surface
Text: (§4) Mycobacteria phage L5 (HER-386) was obtained from the Felix D'Herelle Reference Centre for Bacterial Viruses (Laval University, Quebec, Canada). Mycobacterium marinum ATCC number 927, M. smegmatis mc^2 155 and M. avium subsp. paratuberculosis ATCC 19851 were used in the binding studies along with Campylobacter jejuni NCTC 11168H, Salmonella enterica subsp. enterica sv. Typhimurium ATCC 19585 and E. coli K-12. E. coli DH5α (Invitrogen) and E. coli BL21(DE3) (Invitrogen) were used for cloning and recombinant protein expression procedures, respectively. All mycobacterial strains were grown in ambient atmosphere. Middlebrook 7H9 (BD Biosciences) broth supplemented with oleic acid-albumin-dextrose catalase (BD Biosciences) and mycobactin J (Allied Monitor Inc.) was used to propagate M. smegmatis at 37° C. for 48 hrs as well as MAP cells at 37° C. for 10 days. […]
(§5) Proteins were immobilized onto cysteamine covered gold surfaces that were activated with glutaraldehyde according to the previously described protocol where RBP samples were used instead of whole phage particles. […] For fluorescence microscopy, the bacterial cells were stained with 50 μM resazurin (Sigma-Aldrich) for 20 min before exposure to the substrates covered with the immobilized proteins.
as §3

M. marinum cells = test: Cell binding assay: protein immobilized on gold surface, capture by SEM and fluorescence microscopy; set-up: species or system Mycobacterium marinum
Text: as §4, §5, §3

[2] = tested on: Mycobacterium avium subsp. paratuberculosis ATCC 19851; test: as above; conditions: for capture/binding of MAP cells (in words): protein immobilized on gold surface, 20 μg/ml (Gp6 also 40 μg/ml)
Text: (§6) In order to assess mycophage and mycophage RBPs for their use as probes of MAP infection, Gp-10 and Gp-6 were immobilized using an established protocol (Singh et. al. Biosens. Bioelect. 26 131 (2010) and used for the specific bacterial capture. Gold Surfaces were modified by cysteamine hydrochloride followed by activation using 2% gluteraldehyde. The recombinant proteins Gp-10, Gp-6 and Gp-31 were immobilized over the surfaces in order to capture the host bacteria Mycobacterium avium subsp. paratuberculosis ATCC 19851 and Mycobacterium smegmatis mc^2155. Bacterial capture was confirmed by fluorescence microscopy and Scanning Electron Microscopy (SEM). Nonspecific attachment was prevented by using bovine serum albumin (BSA) as the blocking layer. A negative control was run in parallel where a similar gold surface was treated with all reagents, but they were not exposed to the recombinant phage proteins.
(§7) Proteins were immobilized onto cysteamine covered gold surfaces that were activated with glutaraldehyde according to the previously described protocol where RBP samples were used instead of whole phage particles. Briefly, the gold substrates were fabricated using piranha cleaned silicon substrates by sputtering a 25 nm thick gold layer. The gold substrates were sonicated in acetone, isopropanol, ethanol and MilliQ (Millipore) water for 5 min each prior to their use (Branson Ultrasonics 1510, 40 kHz frequency). The gold substrates were incubated overnight at 40° C. in a 50 mM solution of cysteamine hydrochloride (Sigma-Aldrich). The cysteamine self assembled monolayer (SAM) substrates were modified by 2% glutaraldehyde (Sigma-Aldrich) for 1 hr at room temperature and washed twice in PBS. These modified substrates were incubated in a 20 μg/ml solution of Gp10 (or Gp6) in PBS overnight at […]. The negative control substrate was incubated in PBS only. To block nonspecific binding of bacteria, the substrates were incubated in 1 mg/ml of bovine serum albumin (Sigma-Aldrich) and were washed twice in PBS. The protein covered substrates were exposed to 10^9 cfu/ml of mycobacterial cells in PBS for 1 hr at room temperature. The immobilized surfaces were washed in 0.05 Tween 20 (Sigma-Aldrich) before analysis. For fluorescence microscopy, the bacterial cells were stained with 50 μM resazurin (Sigma-Aldrich) for 20 min before exposure to the substrates covered with the immobilized proteins.
(§8) Bacterial cell binding to the gold surface covered with the immobilized protein was assessed as described previously. Scanning electron microscopy (SEM) and fluorescent microscopy (FM) were used to estimate the number of bacterial cells bound to the surfaces. The samples were fixed with 2% glutaraldehyde for 2 hrs at room temperature followed by a gradient of ethanol from 50% to 100% before SEM. Finally the samples were dried by nitrogen gas. SEM imaging was performed using a Hitachi S-4800/LEO 1430 microscope. Cells were prestained using 50 μM of resazurin stain (Sigma-Aldrich) for the FM-based binding assay. An Olympus IX81 microscope equipped with a FITC filter and a Roper Scientific Cool-Snaps HQ CCD Camera were Used to Record the FM Images. ImageJ Software (USA NIH) was used to analyze the microscopy images. Average numbers of cells bound to the surface are indicated on the basis of the assessment of the cell number, fields of view, and using 8 gold covered chips per test.

[3] = tested on: Mycobacterium smegmatis mc^2155; test: as above; conditions: for Capture efficiency of M. smegmatis cells: 20 μg/ml protein solution used for immobilization onto gold chip; for bacterial capture: gold surface, 20 μg/ml of RBP, Mycobacterium smegmatis mc^2155; for capture/binding of M. smegmatis cells (in words): protein immobilized on gold surface, 20 μg/ml
Text: as §6, §7, §8

[4] = target: T1, peptidoglycan from Bacillus subtilis (Mycobacterium phage L5, UniProt Q05285, I224V/T32I); test: Peptidoglycan binding assay
T1 construct: pET-30a(+) vector-encoded N-terminal leader (additional residues up to the EcoRI site) (N); made in house; host or cells: E. coli BL21(DE3)
Procedure: Dehydrated peptidoglycan from Bacillus subtilis (Sigma-Aldrich) was suspended in water to obtain a 10 mg/ml stock that was stored at −20° C. This stock was diluted further in water to obtain a 1 mg/ml working stock solution that was used in the experiments and was prepared fresh each time. A 0.1 mg/ml sample of Gp10 in PBS was incubated with peptidoglycan at a final concentration of 0.1 mg/ml for 30 min at room temperature with occasional stirring. Then, the peptidoglycan was separated from the protein solution by centrifugation (15 min at 18 000 g at 4° C.), an aliquot of the supernatant was mixed with the SDS-sample buffer and analyzed by SDS-PAGE.

T1 sequence (Q05285 other isoform, or with tags, fused parts or gaps T32I/I224V): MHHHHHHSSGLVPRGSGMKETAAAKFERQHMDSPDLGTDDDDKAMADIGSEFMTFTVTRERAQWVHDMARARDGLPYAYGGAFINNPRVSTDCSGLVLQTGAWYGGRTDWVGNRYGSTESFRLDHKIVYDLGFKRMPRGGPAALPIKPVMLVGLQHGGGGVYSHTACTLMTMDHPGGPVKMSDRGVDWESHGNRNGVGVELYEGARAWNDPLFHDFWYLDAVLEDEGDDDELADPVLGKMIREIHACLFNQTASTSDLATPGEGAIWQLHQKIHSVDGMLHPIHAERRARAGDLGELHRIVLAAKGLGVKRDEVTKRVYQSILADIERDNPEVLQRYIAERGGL

| Molecule | bacterial capture of non-host bacteria (in words) (E. coli) | bacterial capture of non-host bacteria (in words) [1] | bacterial capture of non-host bacteria (in words) (S. Typhimurium) | capture of M. marinum cells (in words) (M. marinum cells) | capture/binding of MAP cells (in words) ([2]; listed as Gp 6) | capture/binding of MAP cells (in words) ([2]; listed as Gp-6) | Capture efficiency of M. smegmatis cells [3] | bacterial capture [3] | capture/binding of M. smegmatis cells (in words) [3] | peptidoglycan binding (in words) ([4]; Gp10 purified from the soluble fraction, 0.1 mg/ml Gp10, 0.1 mg/ml peptidoglycan, 30 min, SDS-PAGE of supernatant) | peptidoglycan binding (in words) ([4]; refolded sample of Gp10 after 8 M urea extraction) | bacterial capture ([2]; gold surface, 20 μg/ml of RBP, MAP ATCC 19851) | capture/binding of MAP cells (in words) [2] |
| --- | --- | --- | --- | --- | --- | --- | --- | --- | --- | --- | --- | --- | --- |
| B1 | no bacterial capture | no bacterial capture | no bacterial capture | Neither of the two proteins was able to capture; also recorded: Neither Gp6 nor Gp10 was able to serve as a capturing agent | did not capture any MAP cells | not showing any bacterial capture | 31.3±1.5×10^−3 cells/μm^2 | 31.3×10^−3 /μm^2 | M. smegmatis specific; also recorded: bind only M. smegmatis cells | – | – | – | – |
| B2 | no bacterial capture | no bacterial capture | no bacterial capture | Neither of the two proteins was able to capture; also recorded: Neither Gp6 nor Gp10 was able to serve as a capturing agent | – | – | 28.7±1.18×10^−3 cells/μm^2 | 28.7×10^−3 /μm^2 | able to bind; also recorded: specifically bind | selectively remove recombinant Gp10 from the solution | retained the ability to bind peptidoglycan | 12.3×10^−3 /μm^2 | able to bind; also recorded: specifically bind |
